This passage reports 阳性细胞数在总细胞中占比 results from CN111606996A.

In the experiment the target is 4D5 CAR on NK92-4D5-Canada cells. The experiment is described as follows: flow cytometry on NK92-4D5-Canada cells, 2μg 5D1 + BV421 goat anti-mouse. Background: Flow cytometry measures light scatter and fluorescence of single cells or particles in a stream.

B1: 靶向4D5的鼠源单克隆抗体5D1 (antibody, V domains shown)
VH: QVQLEQSGAEFVRPGALVRLSCKASGFNIKDYYIHWVKQRPEQGLEWIGWIYPENDDTIYDPKFQGKASLTADTSSNTAYLQLSSLTSEDSAVYFCVRSGSDSSFDYWGQGTTLTVSS
VL: DIVMTQSTASLAVSLGQRATISCRASESVDSYDNSFMHWFQQKPGQPPKLLIYLASNLESGVPARFSGSGSRTDFTLTIDPVEADDAATYYCQQNNEDPFTFGSGTKLEIKR
Consider B1, for which the 阳性细胞数在总细胞中占比 came to 60.2%.
